# From patent US20260070961A1 (Takeda / Millennium, published 2026)
# B1: DENV3-8D4 (antibody, V domains shown)
# VH: QEQLEESGGGLVKPGGTLTLTCTASGFSFSNVYYICWVRQAPGKGLEWIGCIGTGDGNTWYASWAKGRFTISKASSTTVILQVTSLTAADTATYFCARDIYSYDNTGVYTVPKLWGPGTLVTVSS
# VL: AAVLTQTPSPVSAAVGGTVSISCQSSESVYSNNRLAWYQQKPGQPPKLLIYRASTLESGVPSRFKGSGSGTEFTLTISDVRCDDAATYYCAGGYSGSSDKGFGGGTEVVVK
# B2: DENV3-5D7 (antibody, V domains shown)
# VH: QSLEESGGDLVKPGASLTLTCTASGFSFSSGYDMCWVRQAPGKGLEWIACIYITDTGSSYYATWARGRFTISKTSSTSVTLQVTSLTAADTATYFCAKTNYGSGGFAFNLWGPGTLVTVSS
# VL: DVVMTQTPASVEARVGGTVTINCQASQSISNLLAWYQQKPGQPPKLLIYRASALESGVPSRFRGSGSGTEFTLTISDLECADAATYYCQCTYGGSSITNWAFGGGTEVVVK
# notes: also called clone 5D7
# B3: DENV3-12H6 (antibody, V domains shown)
# VH: QEQLEESGGDLVKPEGSLTLTCKASGIDFSSSYWICWVRQAPGKGLEWIGCIYTGSSTTWYAAWAKGRFTISKPSSTTVTLQMTSLTAADTATYFCARFYDVGVYFNLWGPGTLVTVSS
# VL: AIVMTQTPSSKSVPVGDTVTINCQASESISSWLAWYQQKPGQPPKLLIYLASTLASGVPSRFKGSGSGTQFTLTISDVVCDDAATYYCAGYKSSVTDGFAFGGGTEVVVK
# Target: T1, DENV-3 VLP (Dengue virus serotype 3)
# T1 construct: also called dengue 3 VLP; DENV-VLP
# Test: Luminex assay, VLP-conjugated MagPlex beads
row,Binder,EC50
1,B1,0.115 µg/mL
2,B2,0.025 µg/mL
3,B3,0.11 µg/mL

# Target: T1, DENV-3 VLP
# Test: BLI (Octet-HTX), IgG from supernatant captured on Protein A biosensor, 5 ug/mL DENV-VLP
row,Binder,response
1,B1,1.51
2,B2,0.984
3,B3,1.39

# Target: T2, DENV3 Domain III protein (Dengue virus serotype 3)
# T2 construct: domain: Domain III; also called TDV3 Domain III
# Test: BLI (Octet HTX), mAb coupled to AR2G biosensor, 20 ug/mL Domain III protein, response at 1200 sec
row,Binder,Response (nm)
1,B1,0.248 nm
2,B2,0.0178 nm
3,B3,0.0148 nm

# Target: T1, DENV-3 VLP
# Test: BLI (Octet-HTX), IgG from supernatant captured on Protein A biosensor, 5 ug/mL DENV-VLP, 1:1 model
row,Binder,koff
1,B1,< 2e-05 s⁻¹
2,B2,< 2e-05 s⁻¹
3,B3,< 2e-05 s⁻¹
